Molecular target: T1, Fc-CTL (mannose receptor CTLD4-7 fused to human IgG1 Fc) (Mus musculus, UniProt Q61830 Q61830:655-1212)
T1 chain: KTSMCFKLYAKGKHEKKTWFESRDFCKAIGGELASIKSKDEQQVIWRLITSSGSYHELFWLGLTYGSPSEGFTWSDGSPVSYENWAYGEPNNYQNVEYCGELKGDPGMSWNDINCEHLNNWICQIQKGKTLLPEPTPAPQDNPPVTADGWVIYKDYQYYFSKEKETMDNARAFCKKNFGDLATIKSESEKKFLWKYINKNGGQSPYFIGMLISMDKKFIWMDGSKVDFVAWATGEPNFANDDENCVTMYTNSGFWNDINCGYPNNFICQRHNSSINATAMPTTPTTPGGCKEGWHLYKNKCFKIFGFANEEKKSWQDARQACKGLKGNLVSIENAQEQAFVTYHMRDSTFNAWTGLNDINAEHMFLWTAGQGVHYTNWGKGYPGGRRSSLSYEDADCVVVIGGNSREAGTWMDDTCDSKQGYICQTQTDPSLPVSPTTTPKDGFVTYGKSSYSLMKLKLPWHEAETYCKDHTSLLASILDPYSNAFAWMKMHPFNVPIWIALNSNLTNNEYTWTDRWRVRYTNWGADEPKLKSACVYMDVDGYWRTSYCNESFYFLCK
Experiment: filter; 500 nM protein, PBS, 1 mM MgCl2, 1 mM CaCl2, BSA, 37 C; more than 2-fold higher than Fc-FN
Conditions: tags: human IgG1 Fc fusion; expressed in HEK293T from pIgplus-CTLD4-7; protein G purified; chain copies: 2; label: 5'-32P or 5'-ATTO 647N
Procedure: Representative DNA sequences of each motif family (FIG. 14A-B), namely CTL #5, CTL #9, CTL #6 and CTL #16, and unique sequences CTL #1, #2, #3, #14 and #18 (FIG. 39) were chosen for further analysis. Therefore, their binding ability to Fc-CTL, Fc-FN and the IgG1 Fc protein tag was monitored by radioactive filter retention assay (FIG. 15). DNA was end labeled with ³²P and mixed with the corresponding proteins at a concentration of 500 nM. The mixtures were incubated in selection buffer for 30 minutes at 37° C. and applied on a nitrocellulose membrane. Finally, the amount of bound DNA was detected by autoradiography.

B1: CTL #5 (ssDNA)
DNA: GCTGTGTGACTCCTGCAATGCAATCTAGCTGACAATGGGGGGGAAGAATGTGGGTGGGTGGCAGCTGTATCTTGTCTCC
B1: binds.

Reference: patent publication US20210147847, “APTAMERS FOR TARGETED ACTIVATON OF T CELL-MEDIATED IMMUNITY” (Rheinische Friedrich-Wilhelms-Universitat Bonn, published 2021)
